Source: patent US20150203579A1 (Regeneron, published 2015)

T1: recombinant cynomolgus monkey PD-1 expressed with a C-terminal myc-myc-hexahistidine tag (cynomolgus monkey (Macaca fascicularis))
T1 construct: monomeric; also called MfPD-1-MMH
T1 chain: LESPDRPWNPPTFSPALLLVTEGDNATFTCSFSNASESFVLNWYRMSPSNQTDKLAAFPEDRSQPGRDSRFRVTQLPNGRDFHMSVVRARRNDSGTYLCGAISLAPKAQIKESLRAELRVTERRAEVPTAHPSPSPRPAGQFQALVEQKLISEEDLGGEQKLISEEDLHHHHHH

B1: H4xH9037P (antibody, V domains shown)
VH: EVQLVESGGGLVQPGGSLRLSCAASGFTFDDYAMHWVRQAPGKGLEWVSGIGWSSGSIGYADSVKGRFTISRDNAKNSLYLQMDSLRPEDSALYYCAKAYTFMITLYFDYWGQGTLVTVSS
VL: not shown
notes: Human IgG4 Fc with 2 or more amino acid changes (H4xH); also called H4xH9037P2
B2: H4xH9135P2 (antibody, V domains shown)
VH: EVQLVESGGSVVRPGGSLRLSCVVSGFTFEDYGLSWVRQIPGKGLEWVSGISWTGGNTGYADSVKGRFTISRDNAKNSLYLQMNSLRAEDTALYHCTRDRQWLMQWYFDYWGQGTLVTVSS
VL: not shown
notes: Human IgG4 Fc with 2 or more amino acid changes (H4xH)
B3: H4xH9008P (antibody, V domains shown)
VH: EVQLVESGGGLVRPGGSLRLSCAASGFTFSTYAMAWVRQTPGKGLEGVSAIGGSGDSTYYVDSVKGRFTISRDNSKSTLFLQMNSLRAEDTAVYYCVKVRNYDGSFDIWGQGTMVTVSS
VL: not shown
notes: as for B2
B4: H4xH9145P2 (antibody, V domains shown)
VH: QVQLVESGGGVVQPGRSLRLSCSASGFTFSAYAMHWVRQAPGKGLEWVAAISYGGSDKYYADSVKGRFTISRDNSKNTLYLQMNSLRTDDTAVYYCAKSAHWNFFFDYWGQGTLVTVSS
VL: not shown
notes: as for B2
B5: H4xH9128P2 (antibody, V domains shown)
VH: QVQLQESGPGLVKPSETLSLTCTVSGGSISSYHWNWIRQSPGKGLEWIGYIYYIGSTDYNPSLESRVTISVDTSKNQFSLKLSSVTAADTAVYYCARVPVGATGASDVWGQGTMVTVSS
VL: not shown
notes: as for B2
B6: H4xH9119P2 (antibody, V domains shown)
VH: EVQLVESGGGLVQPGRSLRLSCAASGFTFEDYAMHWVRQAPGKGLEWVSGIGWSNVKIGYADSVKGRFTISRDNVRNSLYLQMNSLRTEDTAFYYCVKAYTSMLTLYFDYWGQGTLVTVSS
VL: not shown
notes: as for B2
B7: H4xH8999P (antibody, V domains shown)
VH: QLQLQESGPGLVQPSETLSLTCTVSGDSISSTAYHWDWIRQPPGKGLEWIGTITYNGNTYFNPSLKSRVTISVDTSKNQFSLKLLSMTAAETAVFYCARHLGYNSDFFPFDFWGQGTLVTVSS
VL: not shown
notes: as for B2
B8: H4xH9120P2 (antibody, V domains shown)
VH: QVQLVQSGAEVKRPGASVKVSCKASGYTFTSFYMYWVRQAPGQGLEWMGIINPSDGSTSNAQKFQGRVTMTRDTSTSTVYMELSSLRSEDTAVYYCARRVAGDIFDIWGQGTMVTVSS
VL: not shown
notes: as for B2
B9: H4xH9045P (antibody, V domains shown)
VH: EVQLVESGGGLVQPGRSLRLSCAASGFTFDDYDMHWVRQAPGKGLEWVSGSGWNRGSLGYADSVKGRFTISRDNAKKSLYLQMNSVRVEDTALYYCAKGFVVVSAAYFDYWGQGTLVTVSS
VL: not shown
notes: Human IgG4 Fc with 2 or more amino acid changes (H4xH); also called H4xH9045P2
B10: H4xH9048P2 (antibody, V domains shown)
VH: QVQLVQSGAEVKRPGSSVKVSCKVSGVTFRNFAIIWVRQAPGQGLEWMGGIIPFFSAANYAQSFQGRVTITPDESTSTAFMELASLRSEDTAVYYCAREGERGHTYGFDYWGQGTLVTVSS
VL: not shown
notes: as for B2

The binders below were run against T2, human PD-1 dimer (human PD-1-mFc or human PD-1-hFc) (human, UniProt Q15116 25-170) (assay: SPR, mAb captured, 37C;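 further: Real-time Biacore biosensor, PD-1 dimer flowed over anti-PD-1 antibody surface, rate constants fitted to a 1:1 model, KD derived as kd/ka and t½ as ln2/(60·kd)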).
T2 construct: also called hPD-1-mFc; hPD1-hFc
T2 sequence (Q15116 25-170 C93S): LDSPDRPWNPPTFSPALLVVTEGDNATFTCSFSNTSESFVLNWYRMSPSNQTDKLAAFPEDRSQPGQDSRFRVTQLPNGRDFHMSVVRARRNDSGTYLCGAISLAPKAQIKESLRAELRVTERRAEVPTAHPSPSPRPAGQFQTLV

Binder	Kd	koff	kon	t½
B1	3.5 nM	0.000921 s⁻¹	263000 M⁻¹ s⁻¹	13 min
B2	2.27 nM	0.000702 s⁻¹	310000 M⁻¹ s⁻¹	16 min
B3	≤ 0.181 nM	–	–	≥ 1160 min
B4	3.58 nM	0.000571 s⁻¹	160000 M⁻¹ s⁻¹	20 min
B5	3.68 nM	0.000686 s⁻¹	186000 M⁻¹ s⁻¹	17 min
B6	3.8 nM	0.000909 s⁻¹	240000 M⁻¹ s⁻¹	13 min
B7	0.596 nM	–	–	26 min
B8	5.96 nM	0.000482 s⁻¹	80800 M⁻¹ s⁻¹	24 min
B9	5.13 nM	0.0011 s⁻¹	214000 M⁻¹ s⁻¹	11 min
B10	3.05 nM	0.0011 s⁻¹	361000 M⁻¹ s⁻¹	10 min

Biological target: T1, recombinant cynomolgus monkey PD-1 …
Assay: SPR, mAb captured, 25C

Binder	Kd	koff	kon	t½
B1	13.1 nM	0.000915 s⁻¹	69900 M⁻¹ s⁻¹	13 min
B2	10.6 nM	0.00131 s⁻¹	124000 M⁻¹ s⁻¹	8.8 min
B3	23.8 nM	–	–	4.6 min
B4	43.1 nM	0.00124 s⁻¹	28600 M⁻¹ s⁻¹	9.3 min
B5	17.7 nM	0.000649 s⁻¹	36800 M⁻¹ s⁻¹	18 min
B6	22.2 nM	0.00166 s⁻¹	75000 M⁻¹ s⁻¹	6.9 min
B7	3.09 nM	–	–	8.7 min
B8	34.1 nM	0.00108 s⁻¹	31700 M⁻¹ s⁻¹	11 min
B9	113 nM	0.00705 s⁻¹	62500 M⁻¹ s⁻¹	1.6 min
B10	7 nM	0.000897 s⁻¹	128000 M⁻¹ s⁻¹	13 min

The binders below were run against T3, recombinant human PD-1 expressed with a C-terminal myc-myc-hexahistidine tag (human) (assay: SPR, mAb captured, 37C;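 further: rate constants from fitting sensorgrams to a 1:1 binding model, KD derived as kd divided by ka and half-life as ln2/(60·kd)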).
T3 construct: monomeric; also called hPD-1-MMH; human PD-1-MMH

Binder	Kd	koff	kon	t½
B1	29.5 nM	0.00668 s⁻¹	226000 M⁻¹ s⁻¹	1.7 min
B2	26.6 nM	0.0111 s⁻¹	418000 M⁻¹ s⁻¹	1 min
B3	62.6 nM	–	–	1.4 min
B4	94 nM	0.0123 s⁻¹	131000 M⁻¹ s⁻¹	0.9 min
B5	42 nM	0.00436 s⁻¹	104000 M⁻¹ s⁻¹	2.6 min
B6	43.5 nM	0.0104 s⁻¹	240000 M⁻¹ s⁻¹	1.1 min
B7	15.7 nM	–	–	1.2 min
B8	102 nM	0.00701 s⁻¹	68800 M⁻¹ s⁻¹	1.6 min
B9	662 nM	0.0532 s⁻¹	80400 M⁻¹ s⁻¹	0.2 min
B10	23.2 nM	0.0086 s⁻¹	370000 M⁻¹ s⁻¹	1.3 min

Biological target: T1, recombinant cynomolgus monkey PD-1 …
Assay: SPR, mAb captured, 37C;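 further: rate constants from fitting sensorgrams to a 1:1 binding model, with Kd computed as koff/kon and half-life as ln2/(60·koff), PD-1 flowing over anti-PD-1 antibody surfaces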

Binder	Kd	koff	kon	t½
B1	39.7 nM	0.0088 s⁻¹	222000 M⁻¹ s⁻¹	1.3 min
B2	28.9 nM	0.0134 s⁻¹	462000 M⁻¹ s⁻¹	0.9 min
B3	23.5 nM	–	–	0.8 min
B4	83.7 nM	0.0143 s⁻¹	171000 M⁻¹ s⁻¹	0.8 min
B5	46.1 nM	0.00418 s⁻¹	90600 M⁻¹ s⁻¹	2.8 min
B6	51.4 nM	0.0123 s⁻¹	240000 M⁻¹ s⁻¹	0.9 min
B7	9.41 nM	–	–	1.2 min
B8	107 nM	0.00748 s⁻¹	69800 M⁻¹ s⁻¹	1.5 min
B9	7540 nM	0.105 s⁻¹	14000 M⁻¹ s⁻¹	0.1 min
B10	16.8 nM	0.00697 s⁻¹	415000 M⁻¹ s⁻¹	1.7 min

What follows are binders tested against T2, human PD-1 dimer (human PD-1-mFc or …) (assay: SPR, mAb captured, 25C).

Binder	Kd	koff	kon	t½
B1	0.862 nM	0.000129 s⁻¹	150000 M⁻¹ s⁻¹	89 min
B2	0.651 nM	0.000138 s⁻¹	212000 M⁻¹ s⁻¹	84 min
B3	0.796 nM	–	–	412 min
B4	2.4 nM	0.000158 s⁻¹	65800 M⁻¹ s⁻¹	73 min
B5	1.59 nM	0.000133 s⁻¹	83700 M⁻¹ s⁻¹	87 min
B6	0.992 nM	0.000162 s⁻¹	163000 M⁻¹ s⁻¹	71 min
B7	0.217 nM	–	–	96 min
B8	1.82 nM	0.000119 s⁻¹	65200 M⁻¹ s⁻¹	97 min
B9	1.75 nM	0.00016 s⁻¹	91300 M⁻¹ s⁻¹	72 min
B10	0.798 nM	0.000188 s⁻¹	236000 M⁻¹ s⁻¹	61 min
